Read-outs that look alike come from different tables or passages of the source.
T1: Staphylococcus enterotoxin B (Staphylococcus aureus, UniProt P01552 28-266)
T1 sequence: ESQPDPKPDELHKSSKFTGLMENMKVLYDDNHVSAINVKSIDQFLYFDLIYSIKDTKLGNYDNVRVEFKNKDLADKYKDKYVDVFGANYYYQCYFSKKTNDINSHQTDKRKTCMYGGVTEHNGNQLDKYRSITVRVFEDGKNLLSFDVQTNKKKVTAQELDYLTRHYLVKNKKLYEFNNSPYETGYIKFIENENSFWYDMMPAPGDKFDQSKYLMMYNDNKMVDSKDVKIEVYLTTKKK

B1: human anti-SEB monoclonal antibody 79G9 (antibody, V domains shown)
VH: EVQLEESGAGLLKPSETLSLTCAVYGGSFSGYYWSWIRQAPGKGLEWIGEIDHSGTTNYNPSLKSRVTISVETSKNQFSLRLSSVTAADSAVYYCASSGYCSHGLCPQEDWGQGTLVTVSS
VL: DIELTQSPSFLSASVGDRVAITCRASQGISNYLAWYQQKPGKAPKLLIYAAFVLQSGVPSRFSGSGSGTEFTLTISNLQPEDFATYYCQQLNSYPRAFGPGTKVDIKR
B2: human anti-SEB monoclonal antibody 100C9 (antibody, V domains shown)
VH: EVQLVESGGGLVQPGGSLRLSCSASGFTFSSYWMSWVRQAPGKGLEWVANIIQDGSEKYYADSVKGRLTISRDNAKNSLYLQMNSLRVDDTAVYYCARGYEGCSATRCYLYYFDYWGPGTLVTVSS
VL: SYVLTQPPSVSVSPGQTARITCSGDALPKQYTYWYQQKPGQAPVVVIYKDSERPSGIPERFSGSSSGTTVTVTISGVQAEDEADYYCQSADSSGTSLVFGGGTKLTVLG

What was measured:
[1] = target: T1, Staphylococcus enterotoxin B; assay: cell-based or functional assay
[2] = target: T1, Staphylococcus enterotoxin B
[3] = target: T1, Staphylococcus enterotoxin B; assay: cell-based or functional assay; remark: listed apart in the source

Binder | EC50 of inhibition of SEB-induced IFN-γ production by human PBMC [1] | Kd [2] | EC50 of inhibition of SEB-induced IFN-γ production by human PBMC [3] | EC50 of inhibition of SEB-induced TNF-α production by human PBMC [3]
B1 | 0.125 µg/mL | 25 nM | 0.158 µg/mL | 0.217 µg/mL
B2 | 0.0766 µg/mL | 9.75 nM | – | –

Reference: US20140072553A1 (MORPHOTEK, published 2014)
